Test results: US20040209289A1 (IMMUNEX, published 2004)

Experiments:
Assay in all cases: FACS staining of transfected 293 cells with Fc fusion protein, labeled anti-human IgG Fc detection
[1] = molecular target: T1, mCD28-huFC (extracellular region of murine CD28 fused to a human Fc region from an IgG1 antibody) (murine; human, UniProt P31041 20-150; P01857 100-330 = IgG part)
T1 construct: extracellular domain;domain: Fc region; Bought from R & D Systems
Method: (§1) Full length versions of each of three murine cDNAs (encoding BTL-II, B7RP-1, CD80) were inserted into a vector appropriate for expression. About 10 μg of each of these constructs, along with an empty vector, were used separately to transfect 293 cells. Two days post transfection, about one million cells from each of the four transfections were stained with each of the fusion proteins described above. Bound protein was detected using a fluorescently labeled antibody against the human IgG Fc region. The stained cells were analyzed by FACS.

[2] = molecular target: T2, PD1-huFC (extracellular region of murine PD-1 fused to a human Fc region of an IgG1 antibody) (murine; human, UniProt Q02242 25-169; P01857 100-330 = IgG part)
T2 construct: extracellular domain;domain: Fc region; Bought from R & D Systems
T2 sequence (Q02242 other isoform, or with tags, fused parts or gaps limits assumed): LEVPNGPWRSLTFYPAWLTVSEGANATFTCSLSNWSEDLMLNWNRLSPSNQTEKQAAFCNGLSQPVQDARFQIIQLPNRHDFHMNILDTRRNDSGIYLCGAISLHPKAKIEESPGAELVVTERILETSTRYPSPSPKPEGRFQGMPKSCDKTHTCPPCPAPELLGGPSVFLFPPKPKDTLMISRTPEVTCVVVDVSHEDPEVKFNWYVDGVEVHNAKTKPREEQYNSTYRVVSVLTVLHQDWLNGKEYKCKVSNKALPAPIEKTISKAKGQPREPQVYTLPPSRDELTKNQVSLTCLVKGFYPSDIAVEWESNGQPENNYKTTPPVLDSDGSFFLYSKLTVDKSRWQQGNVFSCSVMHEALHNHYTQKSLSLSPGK
Method: as §1

[3] = molecular target: T3, CTLA4-huFC (extracellular region of murine CTLA4 fused to a human Fc region of an IgG1 antibody) (murine; human, UniProt P09793 36-161; P01857 99-330 = IgG part, limits assumed)
T3 construct: extracellular domain;domain: Fc region; Made in transfected cells and purified by Protein A chromatography
T3 sequence (P09793 other isoform, or with tags, fused parts or gaps limits assumed): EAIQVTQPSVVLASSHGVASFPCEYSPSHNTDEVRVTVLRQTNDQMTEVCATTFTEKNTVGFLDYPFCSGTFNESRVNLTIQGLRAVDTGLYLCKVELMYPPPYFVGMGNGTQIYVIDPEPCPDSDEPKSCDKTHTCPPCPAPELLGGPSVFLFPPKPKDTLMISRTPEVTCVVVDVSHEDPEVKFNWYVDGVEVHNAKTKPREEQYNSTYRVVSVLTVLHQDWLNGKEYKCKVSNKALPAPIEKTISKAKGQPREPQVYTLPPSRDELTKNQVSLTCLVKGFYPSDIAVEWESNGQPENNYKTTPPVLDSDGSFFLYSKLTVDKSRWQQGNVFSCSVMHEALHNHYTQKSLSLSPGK
Method: as §1

[4] = molecular target: T4, ICOS-huFC (extracellular region of murine ICOS fused to a human Fc region from an IgG1 antibody) (murine; human, UniProt Q9WVS0 21-144; P01857 99-330 = IgG part, limits assumed)
T4 construct: extracellular domain;domain: Fc region; Made in transfected cells and purified by Protein A chromatography
T4 sequence (Q9WVS0 other isoform, or with tags, fused parts or gaps limits assumed): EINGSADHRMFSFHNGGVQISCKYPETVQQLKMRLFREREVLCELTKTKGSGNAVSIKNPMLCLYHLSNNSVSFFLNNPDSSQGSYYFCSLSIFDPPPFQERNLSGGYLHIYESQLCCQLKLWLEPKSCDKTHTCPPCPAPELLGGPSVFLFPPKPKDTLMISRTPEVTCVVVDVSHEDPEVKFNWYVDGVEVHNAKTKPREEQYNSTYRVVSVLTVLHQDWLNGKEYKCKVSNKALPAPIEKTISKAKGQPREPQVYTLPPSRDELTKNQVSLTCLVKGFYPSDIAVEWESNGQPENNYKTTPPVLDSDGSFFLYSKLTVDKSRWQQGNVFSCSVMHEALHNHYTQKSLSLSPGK
Method: as §1

T1 sequence (P31041 other isoform, or with tags, fused parts or gaps limits assumed): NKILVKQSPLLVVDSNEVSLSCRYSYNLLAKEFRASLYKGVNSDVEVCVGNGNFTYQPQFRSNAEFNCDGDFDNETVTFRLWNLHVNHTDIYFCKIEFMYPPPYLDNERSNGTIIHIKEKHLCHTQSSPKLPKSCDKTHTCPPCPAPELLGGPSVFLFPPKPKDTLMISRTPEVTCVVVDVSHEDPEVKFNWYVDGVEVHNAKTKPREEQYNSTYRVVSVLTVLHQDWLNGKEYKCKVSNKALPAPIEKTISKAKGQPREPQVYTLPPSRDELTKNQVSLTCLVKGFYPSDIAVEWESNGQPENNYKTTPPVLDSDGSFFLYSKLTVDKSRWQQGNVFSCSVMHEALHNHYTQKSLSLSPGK

B1: murine CD80 (full length, expressed on transfected 293 cells) (ligand, UniProt Q00609 38-306, looked up)
chain: VDEQLSKSVKDKVLLPCRYNSPHEDESEDRIYWQKHDKVVLSVIAGKLKVWPEYKNRTLYDNTTYSLIILGLVLSDRGTYSCVVQKKERGTYEVKHLALVKLSIKADFSTPNITESGNPSADTKRITCFASGGFPKPRFSWLENGRELPGINTTISQDPESELYTISSQLDFNTTRNHTIKCLIKYGDAHVSEDFTWEKPPEDPPDSKNTLVLFGAGFGAVITVVVIVVIIKCFCKHRSCFRRNEASRETNNSLTFGPEEALAEQTVFL
notes: whole, on cells; also called B7-1
B1: binds [1]; no binding [2]; binds [3]. B1: no binding [4].

B2: murine BTL-II (full length, expressed on transfected 293 cells) (ligand)
chain: FRVVGPNLPILAKVGEDALLTCQLLPKRTTAHMEVRWYRSDPAMPVIMYRDGAVVTGLPMEGYGGRAEWMEDSTEEGSVALKIRQVQPSDDGQYWCRFQEGDYWRETSVLLQVAALGSSPNIHVEGLGEGEVQLVCTSRGWFPEPEVHWEGIWGEKLMSFSENHVPGEDGLFYVEDTLMVRNDSVETISCFIYSHGLRETQEATIALSERLQTELVSVSVIGHSQPSPVQVGENIELTCHLSPQTDAQNLEVRWLRSRYYPAVHVYANGTHVAGEQMVEYKGRTSLVTDAIHEGKLTLQIHNARTSDEGQYRCLFGKDGVYQEARVDVQVTAVGSTPRITREVLKDGGMQLRCTSDGWFPRPHVQWRDRDGKTMPSFSEAFQQGSQELFQVETLLLVTNGSMVNVTCSISLPLGQEKTARFPLSDSKIALLWMTLPVVVLPLAMAMDLIKVKRRRRTNEQTHSSNQENNKNDENHRRRLPSDERLR
B2: no binding [1]; no binding [2]; no binding [3]. B2: no binding [4].

B3: murine B7RP-1 (full length, expressed on transfected 293 cells) (ligand, UniProt Q9JHJ8 44-322, looked up)
chain: ASAETEVGAMVGSNVVLSCIDPHRRHFNLSGLYVYWQIENPEVSVTYYLPYKSPGINVDSSYKNRGHLSLDSMKQGNFSLYLKNVTPQDTQEFTCRVFMNTATELVKILEEVVRLRVAANFSTPVISTSDSSNPGQERTYTCMSKNGYPEPNLYWINTTDNSLIDTALQNNTVYLNKLGLYDVISTLRLPWTSRGDVLCCVENVALHQNITSISQAESFTGNNTKNPQETHNNELKVLVPVLAVLAAAAFVSFIIYRRTRPHRSYTGPKTVQLELTDHA
notes: whole, on cells; also called B7h; B7-H2
B3: no binding [1]; no binding [2]; no binding [3]. B3: binds [4].
